This test relates to Diet-Induced Obese (DIO) mouse. In words: Diet-Induced Obese (DIO) mouse study: hFGF7 alone and with semaglutide, 28 days of dosing. The test is classed as in vivo, C57Bl/6 mice. To be noted: DIO mice. As to the method:
Obesity and insulin resistance, an early stage in the development of type 2 diabetes (also known as pre-diabetes), was induced in C57Bl/6 mice by feeding the mice with a high fat diet (Research Diets, Cat #D12492, 60% fat kcal) for 12 weeks starting at 6 weeks of age, and throughout the period of compound dosing. The mice were housed at 22-23° C. and abundant nestlets/bedding material was provided to allow the animals to maintain a microenvironment close to their thermoneutrality of 28-30° C., starting 2 weeks prior to the dosing period and for the full dosing period with a 12 h/12 h light/dark cycle. These environmental conditions are understood by those skilled in the art to reduce the stimulus for maintaining BAT, a thermogenic tissue that is recruited physiologically by cold stimulus, and permit a wider window for observing effects related to BAT recruitment.
Mice were dosed once per day by intraperitoneal injection (100 μl per mouse) with vehicle (9.6 mg/ml mannitol, 4.8 mg/ml sucrose, 0.37 mg/ml L-histidine, 0.025 mg/ml polysorbate 20 (Tween 20, CAS #9005-64-5), […], also referred to as EGS0501 in corresponding figures) dissolved in the vehicle for 28 days. In addition, some mice also received semaglutide (0.012 mg/kg=3 nmol/kg) every 3 days by intraperitoneal injection (100 μl per mouse) dissolved in the vehicle.
Body weight was recorded every day and body composition (fat and lean mass with EchoMRI) was assessed at the end of the study (University of Cincinnati Mouse Metabolic Phenotyping Center). At the end of the dosing period, animals were fasted for 6 hours and euthanized by CO2, blood was collected, and plasma was isolated and frozen at −20° C. Plasma glucose, insulin and leptin levels were assessed at baseline and at the end of the dosing period (mice were fasted for 6 hours before all plasma collection) (University of Cincinnati Mouse Metabolic Phenotyping Center). Insulin sensitivity was determined by HOMA-IR.
Data from in vivo mouse studies are presented as means±SEM. Significance values were evaluated based on the unpaired two-tailed t-test versus vehicle using GraphPad Prism version 7 or 8 (GraphPad Software, San Diego, CA). To assess synergistic effects of A and B, the combination A+B was compared to the sum of A alone and B alone. To quantify synergistic effects, we used percent changes from baseline when baseline data were available and used the difference from vehicle for parameters without baseline data.

B1: hFGF7: recombinant human Fibroblast Growth Factor-7, also referred to as EGS0501; SEQ ID NO: 8 is the sequence for human FGF7 (protein, listed as Homo sapiens)
chain: MHKWILTWILPTLLYRSCFHIICLVGTISLACNDMTPEQMATNVNCSSPERHTRSYDYMEGGDIRVRRLFCRTQWYLRIDKRGKVKGTQEMKNNYNIMEIRTVAVGIVAIKGVESEFYLAMNKEGKLYAKKECNEDCNFKELILENHYNTYASAKWTHNGGEMFVALNQKGIPVRGKKTKKEQKTAHFLPMAIT
modifications: (1)..(194) Fibroblast Growth Factor-7
B1: the “plasma glucose compared to vehicle” value (hFGF7 0.5 mg/kg ip once a day) was “significant effect”. Besides, under “hFGF7 1 mg/kg ip once a day”, the “body weight compared to vehicle” value is given as “significant decreases”, the “epididymal white adipose (WATepi) depot weight compared to vehicle” value is “significant decreases”, the “insulin resistance index (HOMA-IR) compared to vehicle” value is listed as “significant decreases” and the “plasma glucose compared to vehicle” value is on record as “significant decreases”. For the setting “hFGF7 1 mg/kg ip once a day”, the “plasma insulin compared to vehicle” value is reported as “significant decreases” and the “plasma leptin compared to vehicle” value was “significant decreases”.

The record behind these values is US20240238374A1, “METHODS AND COMPOSITIONS FOR INDUCING BROWN ADIPOGENESIS” (ENERGESIS PHARMACEUTICALS, INC., priority 2021, published 2024).
